# Results taken from patent publication US20090018093.
# Read-outs that look alike come from different tables or passages of the source.
# System: Immunoglobulin E (IgE) (Homo sapiens), P01854-1
# Test: filter
# [1] = 2'-OMe/2'-deoxy mix, 3:21 pair changed, DPBS Mg/Ca, 0.1 mg/mL BSA, RT
# Chain of Immunoglobulin E (IgE) (Homo sapiens), P01854-1 (P01854 other isoform, or with tags, fused parts or gaps): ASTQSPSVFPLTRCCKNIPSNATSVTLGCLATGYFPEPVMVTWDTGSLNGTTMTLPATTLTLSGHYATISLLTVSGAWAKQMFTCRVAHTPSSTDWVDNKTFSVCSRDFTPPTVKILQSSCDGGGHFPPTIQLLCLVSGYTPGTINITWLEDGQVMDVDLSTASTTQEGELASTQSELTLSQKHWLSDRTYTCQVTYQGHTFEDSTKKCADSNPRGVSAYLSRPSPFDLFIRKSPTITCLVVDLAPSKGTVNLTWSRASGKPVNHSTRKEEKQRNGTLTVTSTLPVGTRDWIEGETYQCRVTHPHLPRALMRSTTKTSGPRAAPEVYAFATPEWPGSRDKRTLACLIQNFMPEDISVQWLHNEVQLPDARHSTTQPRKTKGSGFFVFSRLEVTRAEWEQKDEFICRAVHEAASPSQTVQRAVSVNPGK
sequence,measurement,setting,value
AGCCUGGGGACCCAUGGGGGGCU [ARC3266],Kd,"ARC1666 pattern with 2'-OMe G8 and 2'-OMe I16, 3' idT [inosine (written G) at 16 (2'-OMe I),18,20 (dI), 2'-OMe 1-5,7,8,10-17,22,23, deoxy 6,9,18-21, PS 8/9,15/16,16/17,18/19,20/21, 3' inverted dT left out], dPBS Ca/Mg + BSA, RT",1.3 nM
AGCCUGGGNGACCCAUNNNGNNGNNGNCNUNN [ARC3271],Kd,"ARC2342 chemistry with 2'-OMe I16, 3' idT, DPBS Mg/Ca, BSA, RT",0.23 nM
GGGGCTACTTTATCCGTTCCTCCTAGTGGGTAGCCCCT [ARC1276],Kd,"2'-OMe at 12, 3' idT [12 (2'-OMe A), 38 (3' inverted dT)], DPBS Mg/Ca, BSA",3 nM
GGGGCUACTTUATCCGUUCCTCCTAGTGGGTAGCCCC [ARC1390],Kd,"2'-OMe at 1-8,11,17,18,20,33-37, 3' idT [2'-OMe: 1-8,11,17,18,20,33-37, 38 = 3' inverted dT], DPBS Mg/Ca, BSA",17 nM
GGGGCTACTTTATCCGTTCCTCCTAGTGGGTAGCCCCT [ARC1279],Kd,"2'-OMe at 15, 3' idT [15 (2'-OMe C), 38 (3' inverted dT)], DPBS Mg/Ca, BSA",0.8 nM
AGCCUGNGGNGACCCAUNNNGNNGNNGCUN [ARC2974],Kd,"ARC1666 chemistry + PS 6-7, 3' idT, DPBS Mg/Ca, BSA, RT",0.07 nM
GGGGCTACTTTATCCGTTCCTCCTAGTGGGTAGCCCC [ARC1405],Kd,"2'-OMe at 1-4,7,33-37, PS 22-23, 3' idT [2'-OMe at 1-4,7,33-37, PS 22-23, 3' idT cap after 37 (left out)], DPBS Mg/Ca, BSA",2.5 nM
GGGGCTACTTTATCCGTTCCTCCTAGTGGGTAGCCCCT [ARC1269],Kd,"2'-OMe at 5, 3' idT [5 (2'-OMe C), 38 (3' inverted dT)], DPBS Mg/Ca, BSA",0.3 nM
AGCCUGGGGACCCAUGGGGGGCU [ARC3263],Kd,"ARC1666 pattern with 2'-OMe G9, 3' idT [dI (written G) at 16,18,20, 2'-OMe 1-5,7,9,10-15,17,22,23, deoxy 6,8,16,18-21, PS 8/9,15/16,16/17,18/19,20/21, 3' inverted dT left out], dPBS Ca/Mg + BSA, RT",0.026 nM
AGUCUGGGGACCCAUGGGGGACU [ARC1247],Kd,[1],192 nM
GGGGCTACTTTATCCGTTCCTCCTAGTGGGTAGCCCC [ARC1412],Kd,"2'-OMe at 1-4,7,33-37, PS 29-30, 3' idT [2'-OMe at 1-4,7,33-37, PS 29-30, 3' idT cap after 37 (left out)], DPBS Mg/Ca, BSA",2.5 nM
AGCCUGGGGACCCAUGGGGGGCU [ARC1253],Kd,"2'-OMe C,U and G7, other A,G deoxy, 3' idT [2'-OMe: 3,4,5,7,11,12,13,15,22,23, 2'-deoxy: 1,2,6,8,9,10,14,16,17,18,19,20,21, 24 = 3' inverted dT], dPBS Ca/Mg + BSA, RT",2 nM
GGGGCTACTTTATCCGTTCCTCCTAGTGGGTAGCCCCN [ARC1296],Kd,"2'-OMe at 32, 3' idT, DPBS Mg/Ca, BSA",1.2 nM
AGCCUGGGGACCCAUGGGGGGCU [ARC907],Kd,"dRmY (2'-OMe C,U), 7-deaza-dG16 [7-deaza-dG at 16, 2'-OMe C3,C4,U5,C11,C12,C13,U15,C22,U23, A,G 2'-deoxy], DPBS Mg/Ca, 0.1 mg/mL BSA, RT",22 nM
AGACUGGGGACCCAUGGGGGUCU [ARC1249],Kd,[1],130 nM
AGCCUGGGGACCCAUGGGGGGCU [ARC2343],Kd,"ARC1666 pattern without 3' idT [dI (written G) at 16,18,20, 2'-OMe 1-5,7,10-15,17,22,23, deoxy 6,8,9,16,18-21, PS 8/9,15/16,16/17,18/19,20/21, no 3' idT], dPBS + BSA, RT",0.09 nM
GGGAGAGGAGAGAACGUUCUACCCGCAGCAUAGCCUGGGGACCCAUGGGGGGCGCUGUCGAUCGAUCGAUCGAUG [ARC1994],Kd,"dRmY: 2'-deoxy A,G, 2'-OMe C,U, error 5, dPBS Ca/Mg + BSA, RT, 109.7 nM with tRNA + ssDNA competitor (p280)",5 nM
AGCCUGGGGACCCAUGGGGGGCU [ARC1566],Kd,"ARC1335 pattern with dI20, 3' idT [dI20 (inosine, parent base G), 3' inverted dT24, rest ARC1335 pattern], dPBS Ca/Mg + BSA, RT",0.1 nM
GGGGCUACTTTATCCGTTCCTCCTAGTGGGTAGCCCC [ARC1270],Kd,"2'-OMe U at 6, 3' idT [6 (2'-OMe U), 38 (3' inverted dT)], DPBS Mg/Ca, BSA",0.2 nM
GGGGCACATTTATCCGTCCCTCCTAGTGGTGTGCCCC [DNA clone SEQ 119],Kd,,0.6 nM
GGGGCTACTTTATCCGTTCCTCCTAGTGGGTAGCCCC [ARC1399],Kd,"2'-OMe at 1-4,7,33-37, PS 16-17, 3' idT [2'-OMe at 1-4,7,33-37, PS linkage 16-17 (internal N = PS, not a base), 3' inverted dT cap (terminal N, left out)], DPBS Mg/Ca, BSA",1.8 nM
GGGAAAAGCGAAUCAUACACAAGACGUGAGCAUAUCAUUGAGUGUAGUGGUUCCGGAGUAAGUCGCUCCGCCAGAGACCAACCGAGAA [rRfY clone SEQ 15],Kd,"2'-F C and U, biphasic, KD2 19.0 nM, 1xSHMCK + tRNA, RT",0.115 nM
AGCCUGGGGACCCAUGGGGGGCU [ARC1259],Kd,"2'-OMe G17 and all C,U, rest 2'-deoxy, 3' idT [2'-OMe at 3,4,5,11,12,13,15,17,22,23, 3'-idT at 24], DPBS Mg/Ca, 0.1 mg/mL BSA, RT",5 nM
GGGGTACCTTTATCCGTTTCTCCTAGTGGGGTGCCCC [DNA clone SEQ 132],Kd,,0.4 nM
GGGGCTACTTTATCCGTTCCTCCTAGTGGGTAGCCCCT [ARC1266],Kd,"2'-OMe at 2, 3' idT [2 (2'-OMe G), 38 (3' inverted dT)], DPBS Mg/Ca, BSA",0.2 nM
GGGGCTACTTTATCCGTTCCTCCTAGTGGGTAGCCCCT [ARC1410],Kd,"DNA with 2'-OMe G1-G4,A7,G33-C37, PS between T27 and G28, 3' idT [2'-OMe G1-G4, A7, G33-C37, PS 27/28 (printed N = PS linkage, left out), 3' inverted dT at 38], dPBS Ca/Mg + BSA",0.7 nM
GGGGCTACTTTATCCGTTCCTCCTAGTGGGUAGCCCCN [ARC1295],Kd,"2'-OMe U at 31, 3' idT, DPBS Mg/Ca, BSA",3 nM
AGCCUGGGGACCCAUGGGGGGCU [ARC3270],Kd,"ARC1666 pattern with 2'-OMe G9 and extra PS after G21, C22 and U23, 3' idT [dI (written G) at 16,18,20, 2'-OMe 1-5,7,9,10-15,17,22,23, deoxy 6,8,16,18-21, PS 8/9,15/16,16/17,18/19,20/21,21/22,22/23,23/idT, 3' inverted dT left out], dPBS Ca/Mg + BSA, RT",0.04 nM
AGUCUGGGGACCCAUGGGGGACU [ARC1246],Kd,[1],34 nM
GGAAUCAUACACAAGACGUCAGUAAGAUUGAGUGUAUGGUUCC [rRfY minimer SEQ 95],Kd,"2'-F C and U, KD2 117.2 nM, 1xSHMCK + tRNA",4.5 nM
GGGGCTACTTGATCCGTCCCTCCTAGTGGGTAGCCCC [ARC477],Kd,,0.6 nM
GGGGCTACTTTATCCGTTCCTCCTAGTGGGTAGCCCCN [ARC1287],Kd,"2'-OMe at 23, 3' idT, DPBS Mg/Ca, BSA",1 nM
AGNCCUGGGNGACCCAUNNNGNNGNNGCUN [ARC2970],Kd,"ARC1666 chemistry + PS 2-3, 3' idT, DPBS Mg/Ca, BSA, RT",0.04 nM
AGCCUGGGGACCCAUGGGGGGCU [ARC1332],Kd,"2'-OMe G2,A10,A14 and all C,U, rest 2'-deoxy, 3' idT [2'-OMe G2,C3,C4,U5,A10,C11,C12,C13,A14,U15,C22,U23, 3' inverted dT at 24], DPBS Mg/Ca, 0.1 mg/mL BSA, RT",0.5 nM
GGGAGAGGAGAGAACGUUCUACGAGCAGCCCUGGGGCCCGGAGGGGGAUGGUCGCUGUCGAUCGAUCGAUCGAUG [ARC1993],Kd,"dRmY: 2'-deoxy A,G, 2'-OMe C,U, error 4, dPBS Ca/Mg + BSA, RT",9 nM
GGGGCTACTTTATCCGTTCCTCCTAGTGGGTAGCCCCT [ARC1278],Kd,"2'-OMe at 14, 3' idT [14 (2'-OMe C), 38 (3' inverted dT)], DPBS Mg/Ca, BSA",2 nM
GGAAUCAUACACAAGACGUCAGUAAGAUUGAGUGUAUGGUU [rRfY minimer SEQ 96],Kd,"2'-F C and U, KD2 39.7 nM, 1xSHMCK + tRNA",0.365 nM
GGGGCAGCTTTATCCGTTCCTCCTAGTGGGCTGCCTC [DNA clone SEQ 131],Kd,,0.3 nM
AGGCUGGGGACCCAUGGGGGCCU [ARC1244],Kd,"dRmY, dPBS Ca/Mg + BSA, RT",450 nM
GGGGCTACTTTATCCGTTCCTCCTAGTGGGTAGCCCC [ARC1395],Kd,"2'-OMe at 1-4,7,33-37, PS 12-13, 3' idT [2'-OMe at 1-4,7,33-37, PS linkage 12-13 (internal N = PS, not a base), 3' inverted dT cap (terminal N, left out)], DPBS Mg/Ca, BSA",5.7 nM
GGGGCTACTTTATCCGTTCCTCCTAGTGGGTAGCCCCT [ARC1300],Kd,"2'-OMe at 36, 3' idT [2'-OMe: 36, 38 = 3' inverted dT], DPBS Mg/Ca, BSA",0.7 nM
AGCCUGGGGACCCAUGGGGGGCU [ARC1562],Kd,"ARC1335 chemistry with dI16, G17 deoxy as printed, 3' idT [16=dI (G parent), 17=deoxy G, 24=3' inverted dT], DPBS Mg/Ca, 0.1 mg/mL BSA, RT",0.6 nM
GGGCTACTTTATCCGTTCCTCCTAGTGGGTAGCCCT [ARC1306],Kd,"2'-OMe stem block as printed in Table 18, 3' idT [2'-OMe: stem block (exact positions not given in the material), 36 = 3' inverted dT], DPBS Mg/Ca, BSA",14 nM
AGCCUGGGGACCCAUGGGGGGCU [ARC1260],Kd,"2'-OMe C,U and G18, other A,G deoxy, 3' idT [2'-OMe: 3,4,5,11,12,13,15,18,22,23, 2'-deoxy: 1,2,6,7,8,9,10,14,16,17,19,20,21, 24 = 3' inverted dT], dPBS Ca/Mg + BSA, RT",102 nM
AGCCUGGGNGACCCAUNNNGNNGNNGCUN [ARC3267],Kd,"ARC1666 chemistry with 2'-OMe G9,I16, 3' idT, DPBS Mg/Ca, BSA, RT",0.2 nM
GGGGCTACTTTATCCGTTCCTCCTAGTGGGTAGCCCC [ARC1396],Kd,"2'-OMe at 1-4,7,33-37, PS 13-14, 3' idT [2'-OMe at 1-4,7,33-37, PS linkage 13-14 (internal N = PS, not a base), 3' inverted dT cap (terminal N, left out)], DPBS Mg/Ca, BSA",2 nM
AGCCUGGGNGACCCAUNNNGNNGNNGNCNUNN [ARC3269],Kd,"ARC2342 chemistry with 2'-OMe G8, 3' idT, DPBS Mg/Ca, BSA, RT",0.52 nM
AGCCUGGGNGACCCAUNNNGNNGNNGNCUN [ARC2340],Kd,"ARC1666 pattern plus PS between G21 and C22, 3' idT, dPBS Ca/Mg + BSA, RT",0.08 nM
GGGGCTACTTCATCCGTCCCTCCTAGTGGGTAGCCCC [ARC478],Kd,,0.4 nM
GGGGTATGTTGATCCGTCCCTCCTAGTGGCATGCCCC [DNA clone SEQ 133],Kd,,0.7 nM
